According to doi:10.1101/2025.05.05.652248:
Like-named read-outs stand apart in the source and are kept apart here.

Columns and labels:
[1] = biological target: MA2561 (AmzR, Archaeal Metabolite-sensing Zipper-like Regulator) of Methanosarcina acetivorans (Methanosarcina acetivorans); assay: non-reducing SDS-PAGE
[2] = biological target: MA2561 (AmzR, Archaeal Metabolite-sensing Zipper-like Regulator) of Methanosarcina acetivorans (Methanosarcina acetivorans); assay: non-reducing SDS-PAGE; remark: listed apart in the source

stoichiometry N [1]: 4
stoichiometry N [2]: 2
Substance: MA2561 (AmzR, Archaeal Metabolite-sensing Zipper-like Regulator) of Methanosarcina acetivorans (natural protein)
